Paper PMC3640046, “Structural Insights into a Wildtype Domain of the Oncoprotein E6 and Its Interaction with a PDZ Domain” (PLoS ONE, 2013)
Like-named read-outs stand apart in the source and are kept apart here. Residues, ends and D or L forms follow the SMILES beside them. No end group written: not given here.

What was measured:
[1] = target: T1, hDlgPDZ2 (Homo sapiens, UniProt Q12959); assay: Surface plasmon resonance (SPR) of hDlgPDZ2 with E6-derived peptides; type: binding; settings: for kon: read-out: ka
T1 construct: host or cells: E. coli BL21 (DE3)
Method: Figure 5 51Z2 derived E6CT6 peptide versus E6CT11 peptide binding to hDlgPDZ2. SPR data. A E6CT6, B E6CT11. Sensorgrams of E6CT6 and E6CT11 binding injected in triplicate (black lines) are shown overlaid with the best fit derived from a 1∶1 interaction model including a mass transport term (orange lines). Peptide concentrations of 3.125, 6.25, 12.5, 25, 50, 100 and 200 µM are shown. The binding parameters were obtained by kinetic analysis of association and dissociation phases (left panels) or by steady state analysis (right panels) utilizing signals of plateaus depicted in the corresponding left panel.
A detailed description of methods is provided in Text S1. Briefly, recombinant proteins were generated in E. coli BL21 (DE3). Cells were disrupted and protein solubility in cell-lysates was assessed. Soluble proteins were FPLC-purified and initially characterized by CD spectroscopy, dynamic light scattering, gel filtration chromatography and NMR spectroscopy. The affinity of E6-derived peptides to hDlgPDZ2 was elucidated utilizing Surface Plasmon Resonance. hDlgPDZ2 was generated by bacterial expression and FPLC purification. The generation of the labeled E6CT11 peptide was performed as previously described. The purified, monomeric 51Z2 and the purified, monomeric hDlgPDZ2 in complex with purified E6CT11 were subsequently structurally characterized by standard solution state NMR techniques.
[1H-‐15N]-‐HSQC-‐spectra

[2] = type: physicochemical; settings: N-terminal His6-tag, E. coli BL21(DE3), 20 °C overnight expression with 10 µM Zn2+; cell extract in lysis buffer pH 7.3; centrifugation 10,000 x g, 4 °C, 30 min; Coomassie stained SDS-PAGE
Method: Assessment of solubility of amino-terminally His6-tagged, recombinant E6 constructs derived from the high-risk types 16, 18, 26, 31, 45, 51, 59 and 97 as well as for the non-tumorigenic cutaneous type 1a was performed after bacterial expression in presence of 10 µM of Zn^2+ as solubility of E6 constructs is dependent on low µM concentrations of zinc. None of the wild-type sequence full-length E6 constructs nor their respective N-terminal zinc-binding domain (ZBD) turned out to be soluble (Table S1). […] The soluble constructs are denoted as E6Z2 (e.g. 51Z2 stands for the second, i.e. C-terminal, ZBD of HPV 51 E6). […]

[3] = target: T1, hDlgPDZ2; settings: cited from earlier work
From the text: 51Z2 contains a carboxy-terminal PDZ-BM and the full-length protein causes the degradation of hDlg in vitro [32].

[4] = test system: hDlg; settings: in vitro degradation assay; cited from earlier work
From the text: One PDZ domain containing protein targeted by E6 for degradation in vivo is the multi-domain protein hDlg (human Dlg/hDlg1/SAP-97). […] Human Dlg is part of the Scribble polarity complex that controls basolateral polarity and it is required for adherens junction formation and differentiation of epithelial cells. Human Dlg is expressed in human keratinocytes and localizes to nuclear, cytoplasmic, membrane-associate ...

[5] = target: T2, second PDZ domain of human Dlg (hDlg/hDlg1/SAP-97) (human, UniProt Q12959 318-406, 15N labelled in the titrations with the peptides); assay: SPR; kinetic analysis
T2 chain: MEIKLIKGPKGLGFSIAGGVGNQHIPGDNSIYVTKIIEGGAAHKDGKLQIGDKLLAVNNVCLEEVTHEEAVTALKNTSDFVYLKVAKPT

[6] = target: T3, second PDZ domain of human Dlg (hDlg/hDlg1/SAP-97) (human, UniProt Q12959 318-406, 15N labelled in the titrations with the peptides); assay: SPR; peptides injected in triplicate at 3.125, 6.25, 12.5, 25, 50, 100 and 200 µM; kinetic analysis (1:1 interaction model with a mass transport term) and steady state analysis; settings: both partners purified
T3 construct: also called hDlgPDZ2; PDZ domain 2 of hDlg; source: bacterial expression, FPLC purification

[7] = target: T3, second PDZ domain of human Dlg …; assay: NMR titration; [1H,15N]-HSQC of 100 µM 15N labeled 51Z2 without or with 3 fold excess of unlabeled hDlgPDZ2; slow exchange on the NMR time scale; settings: both partners purified
[8] = kinetic analysis, 1:1 interaction model including mass transport term, 25 °C, pH 7.4
[9] = kinetic analysis, 1:1 interaction model including mass transport term, Biacore 2000, 25 °C, His6-tagged hDlgPDZ2 on NTA chip, peptide 3.125-200 µM, 150 mM NaCl, 10 mM HEPES, 3 mM EDTA, 0.005% polysorbate 20, pH 7.4, injected in triplicate, read-out: KD (kinetic analysis)

Work on `CC(=O)N[C@@H](CCC(N)=O)C(=O)N[C@@H](CCCNC(=N)N)C(=O)N[C@H](C(=O)N[C@@H](CCCNC(=N)N)C(=O)N[C@@H](CCC(N)=O)C(=O)N[C@@H](CCCNC(=N)N)C(=O)N[C@@H](CC(N)=O)C(=O)N[C@@H](CCC(=O)O)C(=O)N[C@H](C(=O)N[C@@H](CCC(N)=O)C(=O)N[C@H](C(=O)O)C(C)C)[C@@H](C)O)[C@@H](C)O` [E6CT11, Ac-QRTRQRNETQV] (Ac-QRTRQRNETQV-OH) yielded a Kd ([1]; SPR, 25 °C, pH 7.4, read-out: Kd) of under 10 µM, a kon [1, 8] of 104000 M⁻¹ s⁻¹ and a Kd [1, 9] of 9.79 ± 0.03 µM. The Kd ([1]; steady state analysis utilizing signals of plateaus, Biacore 2000, 25 °C, His6-tagged hDlgPDZ2 on NTA chip, peptide 3.125-200 µM, 150 mM NaCl, 10 mM HEPES, 3 mM EDTA, 0.005% polysorbate 20, pH 7.4, injected in triplicate, read-out: KD (steady state analysis)) was 9.63 ± 0.02 µM.

With “18 E6FL: full-length HPV 18 E6, His6-tagged” the “solubility of recombinant E6 construct” value [2] was “Insoluble”.

Molecule `CC(=O)N[C@@H](CCCNC(=N)N)C(=O)N[C@@H](CC(N)=O)C(=O)N[C@@H](CCC(=O)O)C(=O)N[C@H](C(=O)N[C@@H](CCC(N)=O)C(=O)N[C@H](C(=O)O)C(C)C)[C@@H](C)O` [E6CT6, Ac-RNETQV] (Ac-RNETQV-OH) has a kon [1, 8] of 54000 M⁻¹ s⁻¹ and a Kd [1, 9] of 28.42 ± 0.05 µM.

In the case of “HPV 18 E6: E6 oncoprotein of high-risk HPV 18”, the “interaction with hDlgPDZ2” value [3] is listed as “interact with hDlgPDZ2” and the “E6 dependent reduction of hDlg levels” value [4] is listed as “reduction of hDlg levels”.

B1: 45 E6FL: full-length HPV 45 E6, His6-tagged (protein, UniProt P21735 1-158, looked up)
chain: MARFDDPKQRPYKLPDLCTELNTSLQDVSIACVYCKATLERTEVYQFAFKDLCIVYRDCIAYAACHKCIDFYSRIRELRYYSNSVYGETLEKITNTELYNLLIRCLRCQKPLNPAEKRRHLKDKRRFHSIAGQYRGQCNTCCDQARQERLRRRRETQV
modifications: full-length His6 tag
notes: full-length HPV 45 E6, His6-tagged
For B1, the “solubility of recombinant E6 construct” value [2] was “Insoluble”.

B2: 31 (co) E6FL: full-length HPV 31 E6, His6-tagged (protein, UniProt P17386 1-149, looked up)
chain: MFKNPAERPRKLHELSSALEIPYDELRLNCVYCKGQLTETEVLDFAFTDLTIVYRDDTPHGVCTKCLRFYSKVSEFRWYRYSVYGTTLEKLTNKGICDLLIRCITCQRPLCPEEKQRHLDKKKRFHNIGGRWTGRCIACWRRPRTETQV
modifications: full-length His6 tag
notes: full-length HPV 31 E6, His6-tagged
In the case of B2, the “solubility of recombinant E6 construct” value [2] is reported as “Insoluble”.

In the case of Ac-RNETQV (also called E6CT6 peptide) [E6CT6, N-terminally truncated 6mer peptide of the HPV 51 E6 C-terminus (Ac-RNETQV)], the koff [5] is reported as 1.53 s⁻¹ and the Kd [6] is reported as 28.3 µM.

B3: 16 (co) E6FL: full-length HPV 16 E6, His6-tagged (protein, UniProt P03126 1-158, looked up)
chain: MHQKRTAMFQDPQERPRKLPQLCTELQTTIHDIILECVYCKQQLLRREVYDFAFRDLCIVYRDGNPYAVCDKCLKFYSKISEYRHYCYSLYGTTLEQQYNKPLCDLLIRCINCQKPLCPEEKQRHLDKKQRFHNIRGRWTGRCMSCCRSSRTRRETQL
modifications: full-length His6 tag
notes: full-length HPV 16 E6, His6-tagged
In the case of B3, the “solubility of recombinant E6 construct” value [2] is reported as “Insoluble”.

B4: HPV 16 E6: E6 oncoprotein of high-risk HPV 16 (protein, UniProt P03126 1-158, looked up)
Protein E6: B3 chain
For B4, the “interaction with hDlgPDZ2” value [3] is given as “interact with hDlgPDZ2” and the “E6 dependent reduction of hDlg levels” value [4] is given as “reduction of hDlg levels”.

B5: E6CT11, 11mer peptide representing the complete disordered C-terminus of HPV 51 E6 (Ac-QRTRQRNETQV) (peptide)
peptide: Ac-QRTRQRNETQV
notes: HPV 51 E6 residues 141 to 151; also called E6CT11 peptide
With B5 the koff [5] was 1.01 s⁻¹, the Kd [6] was 9.6 µM and the “fold change of the association rate against E6CT6” value [6] was about 2 fold.

B6: second (C-terminal) zinc-binding domain of HPV 51 E6 (domain or fragment)
chain: GSHMSRSVYGTTLEAITKKSLYDLSIRCHRCQRPLGPEEKQKLVDEKKRFHEIAGRWTGQCANCWQRTRQRNETQV
modifications: 15N labelled in the titration with hDlgPDZ2; binds one zinc ion
notes: source: E. coli BL21 (DE3), FPLC-purified
B6: binds [7].
